Source: doi:10.1101/2025.09.20.677498

Columns and labels:
[1] = biological target: HAdV-D10 penton base (human adenovirus type 10 (HAdV-D10)); experiment: cryo-EM structure
[2] = biological target: HAdV-D10 fiber protein (human adenovirus type 10 (HAdV-D10)); experiment: cryo-EM structure

Row | Substance | stoichiometry N [1] | stoichiometry N [2]
1 | HAdV-D10 penton base (natural protein) | 5 | 
2 | HAdV-D10 fiber protein (natural protein) |  | 3
